± gives the half width of the 95% confidence interval.
What was measured:
[1] = folding stability dG unfold from chymotrypsin proteolysis; higher = more stable
Experimental: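 Folding stability of de novo designed mini-proteins (<80 aa, no Cys; designed by TrROS, TrMRF, ProteinMPNN and the joint model) was measured by cDNA display proteolysis with trypsin and chymotrypsin. Each protease was used at 11 concentrations in a threefold dilution series plus a no-protease condition. K50 was inferred by Bayesian fitting of sequencing counts, and dG unfold was derived against a sequence-predicted unfolded-state K50 (Tsuboyama et al. method). Sequences shown include variable-length N-terminal GS-type padding (SAGGSAGG...) inside a display construct carrying a PA tag. Rows were kept only if the AF2 dimer inter-PAE was >15, to exclude likely homo-oligomers.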

[2] = folding stability dG unfold (combined trypsin and chymotrypsin); higher = more stable
How it was run: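 Unfolding free energy was derived, per protease or combined, by relating Bayesian-fitted K50 values from sequencing counts to a sequence-predicted unfolded-state K50 and a shared folded-state K50. The underlying digests exposed cysteine-free mini-proteins under 80 residues, in a PA-tagged cDNA display construct, to trypsin and chymotrypsin at 11 threefold-diluted concentrations and to a no-protease condition. A filter kept only designs with AlphaFold2 dimer inter-PAE above 15.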

Row | Sequence | folding stability dG unfold [1] [kcal/mol] | folding stability dG unfold [2] [kcal/mol]
1 | SAGGSAGGSAAPDLVTETETRTHPETGLVITRERVTLPSTGTTEERTVVTDPETGVTTTEKSSAGGSAGGSA [r18_383_JUSTAS] | 0.294 ± 0.038 | -0.139 ± 0.13
2 | SAGGSAGGSAGAYSATPVEERRLPDGSTLVRERVTDPATGTPALREVLVTDEGVEERLLPSAGGSAGGSAGG [r11_991_JUSTAS] | 0.415 ± 0.098 | -0.458 ± 0.1
3 | SAGGSAGGSAGEAASSLKLPPVTLTTPPVPVELPPGLTVESVEPVRTPSGETILVVNLVRSAGGSAGGSAGG [r11_388_JUSTAS] | 0.279 ± 0.13 | -0.349 ± 0.19
4 | SAGGSAGGSAGGDEILELERIPETGELVLRRITPDGEGFRIEEEVVPVGPELAEALPEGSAGGSAGGSAGGS [r10_291_TrMRF] | -0.279 ± 0.34 | < -1
5 | SAGGSAGGSAGGDPDLPVYSVSPTTIPAPPGQDSPTPGPNSVTVDANGTATVTETSVSLVSAGGSAGGSAGG [r7_556_JUSTAS] | -0.6 ± 0.2 | < -1
6 | SAGGSAGGSAGGDVNSPNIPPVLTVEPVEVLDPGGGGLRRRVVYVAPGGIVLETEERPESAGGSAGGSAGGS [r10_261_JUSTAS] | 0.702 ± 0.12 | 0.156 ± 0.16
7 | SAGGSAGGSAGGGMEFSTVTVKRTLKTLGKTEVTTVPVVNPVPPPPPLGPENIARSRGVLSAGGSAGGSAGG [r7_79_JUSTAS] | -0.0494 ± 0.21 | < -1
8 | SAGGSAGGSAGGGMKLRLVTYSITTTNKVFPSLEEALAAPPDETDGVDEIISSSLKPLLSAGGSAGGSAGGS [r10_729_JUSTAS] | 0.21 ± 0.17 | -0.326 ± 0.15
9 | SAGGSAGGSAGGGMTTTYTTETIEAPDGTVVIKKTTTYDYGNGSLTKPTIYNPDGTPIGSAGGSAGGSAGGS [r10_1056_JUSTAS] | 0.452 ± 0.14 | -0.188 ± 0.12
10 | SAGGSAGGSAGGGPAKALITSPDGSKAEATVTVDTATGTVTLTVENASLPPDWKLELLGSAGGSAGGSAGGS [r10_306_TrMRF] | 0.768 ± 0.065 | 0.0987 ± 0.23
11 | SAGGSAGGSAGGGPGFTVLERREDPATGTVTILRRFAFPDGSTALEPRVVPRAPDERLESAGGSAGGSAGGS [r10_605_JUSTAS] | -0.0135 ± 0.17 | < -1
12 | SAGGSAGGSAGGGPPVERVTTETILRPDGTTTTTRKTTVVPPTDTVTTTTTTLTTTPVTSAGGSAGGSAGGS [r10_1139_JUSTAS] | 0.328 ± 0.067 | 0.0441 ± 0.18
13 | SAGGSAGGSAGGGRVLRLADGKWRLVELPDGSVVLVPENVPVLDPEAKEPVLVAPVLPLDSAGGSAGGSAGG [r7_968_TrMRF] | 0.938 ± 0.073 | 0.223 ± 0.06
14 | SAGGSAGGSAGGGSVTRLPDGVTTVVTFPDGSTVTVPAGVPYTDPNAATPVTVSPVPPALSAGGSAGGSAGG [r7_968_JUSTAS] | 0.119 ± 0.1 | < -1
15 | SAGGSAGGSAGGGYVTLSHEIPPDQSVEITAPDGKKAKQERDPATKTVTYKISPELYKLLSAGGSAGGSAGG [r7_155_JUSTAS] | -0.855 ± 0.56 | < -1
16 | SAGGSAGGSAGGKDEKPKPLKVPVIVAPAPEYLELAKKLLPPDKAKVIEKKDDKVVIAFGSAGGSAGGSAGG [r7_670_TrMRF] | -0.425 ± 0.32 | -0.533 ± 0.21
17 | SAGGSAGGSAGGKKKVKILEVKKIPELNEIVVVIETENGKPVLVPLKPGKTLEDVKKEISAGGSAGGSAGGS [r10_984_TrMRF] | 0.913 ± 0.042 | 0.44 ± 0.21
18 | SAGGSAGGSAGGKLTLKLGDYEVEVEWNPDEDVFIAEFPGDPRIARLRIPDDKIEIEPIESAGGSAGGSAGG [r7_156_TrMRF] | 0.819 ± 0.12 | 0.392 ± 0.11
19 | SAGGSAGGSAGGKPITIERNEDNGPIEIRFPGNGRRIHFPFPPGDDITIDAEDGNIEIKSAGGSAGGSAGGS [r10_979_TrROS] | 0.827 ± 0.016 | 0.314 ± 0.086
20 | SAGGSAGGSAGGKPTIKLKVTITNENGEKIEIEVEAESEEEALEALKALLPPGWKVEIESAGGSAGGSAGGS [r10_145_TrROS_Hall] | 2.82 ± 0.2 | 4.21 ± 0.67
21 | SAGGSAGGSAGGKPVKVKVVIPVPDGDEVLVLEVEVEGEGGEEAVRQALEVAAELLREGSAGGSAGGSAGGS [r10_863_TrMRF] | 0.768 ± 0.088 | 0.0842 ± 0.23
22 | SAGGSAGGSAGGKRRIQIPPDDPGMTAEQLADRLQKEFPENGVPVEITNIDDYGYIEIESAGGSAGGSAGGS [r10_579_TrROS] | 0.962 ± 0.021 | 0.443 ± 0.088
23 | SAGGSAGGSAGGLHPDQEFAVRLDLDLDLRLGPGADLRVSDVRVGGVRVYDLRTGRWLDSAGGSAGGSAGGS [r10_248_TrMRF] | 0.445 ± 0.15 | -0.323 ± 0.25

Source: the supplement of paper PMC12764529
